From patent US20240124607A1 (Merck Sharp & Dohme, published 2024)
Where a chain is given by its changes, count along the chain named.

Legend:
[1] = target: T1, Human CEACAM5 I80V V83A I112V I113T (human, UniProt P06731 35-685, limits assumed); test: SPR, 37C, pH 7.4
T1 chain: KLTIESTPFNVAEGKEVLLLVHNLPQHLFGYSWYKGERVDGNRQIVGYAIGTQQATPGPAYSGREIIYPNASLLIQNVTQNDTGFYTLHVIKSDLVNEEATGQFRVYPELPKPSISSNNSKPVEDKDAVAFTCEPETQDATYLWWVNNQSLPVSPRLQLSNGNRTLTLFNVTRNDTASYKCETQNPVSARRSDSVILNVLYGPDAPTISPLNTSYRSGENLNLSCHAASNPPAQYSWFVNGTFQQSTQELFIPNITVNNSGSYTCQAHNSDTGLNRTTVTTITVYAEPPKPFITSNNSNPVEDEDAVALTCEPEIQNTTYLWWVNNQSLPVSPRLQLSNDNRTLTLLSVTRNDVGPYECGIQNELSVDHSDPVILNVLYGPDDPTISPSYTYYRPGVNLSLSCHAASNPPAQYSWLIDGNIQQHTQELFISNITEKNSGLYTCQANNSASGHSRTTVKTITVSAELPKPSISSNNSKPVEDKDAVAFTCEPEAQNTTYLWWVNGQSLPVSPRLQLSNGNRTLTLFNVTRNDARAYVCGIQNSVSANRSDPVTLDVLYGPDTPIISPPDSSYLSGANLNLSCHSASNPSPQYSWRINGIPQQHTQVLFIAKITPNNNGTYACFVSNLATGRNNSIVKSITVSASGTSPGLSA

Human CEACAM5 (E398) = target: T2, Human CEACAM5 (E398) (human, UniProt P06731 35-685, limits assumed); test: SPR, 37C, pH 7.4
T2 construct: also called hCEACAM5
T2 sequence: T1 chain with V46I, A49V, V78I, T79I

human CEACAM5 on cells = target: T3, human CEACAM5 on cells (human, UniProt P06731 35-685); test: flow cytometry, HPAF-II cells
T3 construct: tumour cell lines with endogenous CEACAM5, or B16F10 engineered to express hCEACAM5; also called CEACAM5 on MKN-45, HPAF-II, SK-CO-1, LoVo, BxPC-3, Kato-III, LS-174T, ZR-75-30; hCEACAM5-B16F10
T3 sequence: T1 chain with V46I, A49V, V78I, T79I
Protocol: MKN-45 and HPAF-II human cancer cell lines were diluted into FACS buffer and 100,000 cells of each cell type were seeded per well in duplicate into 96-well plates for FACS staining. The cells were washed with PBS, incubated in a 1:2000 dilution of live/dead dye in PBS for 15 minutes, and then washed with FACS buffer. AB0264, AB0411, AB0466, and AB0621 were diluted into FACS buffer, and 50 μl of each diluted TriNKET was added to the cells. After incubation on ice for 30-120 minutes, the cells were washed with FACS buffer. Anti-human IgG-Fc secondary antibody was diluted into FACS buffer, and 50 μl was added per well for detection of the bound TriNKETs. The cells were incubated for 30-60 minutes on ice and then washed with FACS buffer. 50 μl of fixation buffer was added to each well and the cells were incubated for 10 minutes at room temperature. The cells were washed with FACS buffer and resuspended in FACS buffer for analysis with ThermoFisher Attune NxT, BD FACS Celesta SN #H66034400085, or BD FACS Celesta SN #H66034400160.
Cells of interest were identified using FSC vs. SSC plot and an appropriately shaped gate was drawn around the cells. Within the gated cells, doublet cells were removed by viewing FSC-H vs. FSC-A plot. Within the single cell population, live cells were gated. Within the live gate, the median fluorescence intensity (MFI) of each sample and the secondary-only control was calculated. Fold-over-background (FOB) was calculated as the ratio of test article MFI over secondary-only background MFI. Data were fit to a four-parameter non-linear regression curve using GraphPad Prism 7.0.

Kd [1]: 6.4 nM | kon [1]: 260000 M⁻¹ s⁻¹ | Kd (Human CEACAM5 (E398)): 1.7 nM | kon (Human CEACAM5 (E398)): 270000 M⁻¹ s⁻¹ | EC50 (human CEACAM5 on cells): 8.36 nM | Max FOB (human CEACAM5 on cells): 54.9 fold over background
B1: AB0411 F3' CEACAM5 TriNKET (bispecific antibody, human IgG1, kappa)
chain: DIQLTQSPATLSVSPGERATLSCRASQSVSSSYLAWYQQKPGQAPRLLIYGASSRATGIPDRFSGSGSGTDFTLTISRLEPEDFAVYYCQQYNNWPLTFGCGTKVEIKGGGGSGGGGSGGGGSGGGGSQVQLVQSGGGLVQPGGSLRLSCAASGFTFTSYAMSWVRQAPGKCLEWVSAISGTGDSTFYADSVKGRFTFSRDNSKNTLYLQMNSLRAEDTAVYYCAKDLGWLQYGLFDYWGQGTLVTVSSGSDKTHTCPPCPAPELLGGPSVFLFPPKPKDTLMISRTPEVTCVVVDVSHEDPEVKFNWYVDGVEVHNAKTKPREEQYNSTYRVVSVLTVLHQDWLNGKEYKCKVSNKALPAPIEKTISKAKGQPREPRVYTLPPCRDELTKNQVSLTCLVKGFYPSDIAVEWESNGQPENNYKTTPPVLVSDGSFTLYSKLTVDKSRWQQGNVFSCSVMHEALHNHYTQKSLSLSPG
heavy: EVQLVESGGGLVKPGGSLRLSCAASGFTFSSYSMNWVRQAPGKGLEWVSSISSSSSYIYYADSVKGRFTISRDNAKNSLYLQMNSLRAEDTAVYYCARGAPIGAAAGWFDPWGQGTLVTVSSASTKGPSVFPLAPSSKSTSGGTAALGCLVKDYFPEPVTVSWNSGALTSGVHTFPAVLQSSGLYSLSSVVTVPSSSLGTQTYICNVNHKPSNTKVDKKVEPKSCDKTHTCPPCPAPELLGGPSVFLFPPKPKDTLMISRTPEVTCVVVDVSHEDPEVKFNWYVDGVEVHNAKTKPREEQYNSTYRVVSVLTVLHQDWLNGKEYKCKVSNKALPAPIEKTISKAKGQPREPQVCTLPPSRDELTENQVSLTCLVKGFYPSDIAVEWESNGQPENNYKTTPPVLDSDGSFFLYSWLTVDKSRWQQGNVFSCSVMHEALHNHYTQKSLSLSPG
light: DIQMTQSPSSVSASVGDRVTITCRASQGISSWLAWYQQKPGKAPKLLIYAASSLQSGVPSRFSGSGSGTDFTLTISSLQPEDFATYYCQQGVSFPRTFGGGTKVEIKRTVAAPSVFIFPPSDEQLKSGTASVVCLLNNFYPREAKVQWKVDNALQSGNSQESVTEQDSKDSTYSLSSTLTLSKADYEKHKVYACEVTHQGLSSPVTKSFNRGEC
